Laboratory results reported in article PMC8067865 (Molecules, 2021).

Assays:
Assay in all cases: native MS; 3 to 4.5 uM purified P dimers, buffer exchanged to ammonium acetate (GII.10 Vietnam 125 mM; GII.17 Kawasaki and GII.4 Saga 300 mM; GII.4 MI001 250 mM) pH 7.5; nano-ESI, positive ion mode, 25 °C; monomer-dimer
[1] = target: GII.4 MI001 P domain (VP1 residues 225-530), wildtype N373 (human norovirus GII.4 MI001)
[2] = target: GII.10 Vietnam 026 P domain (VP1 residues 224-538) (human norovirus GII.10 Vietnam 026)
[3] = target: GII.17 Kawasaki 308 P domain (VP1 residues 225-530) (human norovirus GII.17 Kawasaki 308)
[4] = target: fully deamidated (iDiD) GII.4 Saga P domain (VP1 residues 225-530), N373 converted to iso-aspartate (human norovirus GII.4 Saga 2006) (UniProt B5BTR7)
[5] = target: partially deamidated GII.4 MI001 P domain (VP1 residues 225-530), approximately 64% deamidated at N373 (human norovirus GII.4 MI001)
[6] = target: the molecule itself

Molecule: GII.4 MI001 P domain (VP1 residues 225-530), wildtype N373 (domain or fragment)
- stoichiometry N [1]: 2

Molecule: GII.10 Vietnam 026 P domain (VP1 residues 224-538) (domain or fragment)
- stoichiometry N [2]: 2

Molecule: GII.17 Kawasaki 308 P domain (VP1 residues 225-530) (domain or fragment)
- stoichiometry N [3]: 2

Molecule: fully deamidated (iDiD) GII.4 Saga P domain (VP1 residues 225-530), N373 converted to iso-aspartate (from UniProt B5BTR7 225-530) (domain or fragment)
- percent monomers [4]: 32%

Molecule: partially deamidated GII.4 MI001 P domain (VP1 residues 225-530), approximately 64% deamidated at N373 (domain or fragment)
- percent monomers [5]: 16%

B1: GII.4 Saga 2006 P domain (VP1 residues 225-530), wildtype N373 (NN) (domain or fragment)
chain: GPGSKPFTVPILTVEEMTNSRFPIPLEKLFTGPSGAFVVQPQNGRCTTDGVLLGTTQLSPVNICTFRGDVTHIAGSRNYTMNLASLNWNNYDPTEEIPAPLGTPDFVGKIQGLLTQTTKGDGSTRGHKATVYTGSAPFTPKLGSVQFSTDTENDFETHQNTKFTPVGVIQDGSTTHRNEPQQWVLPSYSGRNVHNVHLAPAVAPTFPGEQLLFFRSTMPGCSGYPNMDLDCLLPQEWVQHFYQEAAPAQSDVALLRFVNPDTGRVLFECKLHKSGYVTVAHTGQHDLVIPPNGYFRFDSWVNQFYTLAPM
notes: major capsid protein VP1 of human norovirus GII.4 Saga 2006, protruding (P) domain, VP1 residues 225-530; also called GII.4 Saga P dimer; wildtype GII.4 Saga P domains; source: E. coli BL21(DE3), purified (Ni-NTA, HRV 3C cleavage, SEC; cation exchange to separate pure N373 wildtype); not shown: two His-tags, N-terminal, cleaved
- stoichiometry N [6]: 2
